Data as given in paper PMC6784197.

Experiments:
[1] = target: <EGFR> Hw-La; assay: SPR; monovalent (affinity) set-up: antibody captured via anti-hFc on CM5 chip, huEGFR ECD as analyte 19-300 nM; Biacore T200, HBS-P+ pH 7.4, 25 °C; 1:1 Langmuir model
[2] = target: <EGFR> Hb-Lw; assay: as above
[3] = target: <EGFR> Ha-Lw; assay: as above
[4] = target: <Her2/neu> Hg-Lg; assay: SPR; monovalent (affinity) set-up: antibody captured via anti-hFc on CM5 chip, huHer2 ECD as analyte 19-300 nM; Biacore T200, HBS-P+ pH 7.4, 25 °C; 1:1 Langmuir model
[5] = target: <Her2/neu> Hb-Lw; assay: as above
[6] = target: <Her2/neu> Ha-Lw; assay: as above
[7] = target: <Her2/neu> Hg-Lw; assay: as above
Chain of <Her2/neu> Hg-Lw (heavy, as listed by the source, chain 1 of 2): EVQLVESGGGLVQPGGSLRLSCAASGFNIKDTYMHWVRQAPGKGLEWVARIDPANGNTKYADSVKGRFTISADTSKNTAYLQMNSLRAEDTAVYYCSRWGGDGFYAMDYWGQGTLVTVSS
Chain of <Her2/neu> Hg-Lw (light, as listed by the source, chain 2 of 2): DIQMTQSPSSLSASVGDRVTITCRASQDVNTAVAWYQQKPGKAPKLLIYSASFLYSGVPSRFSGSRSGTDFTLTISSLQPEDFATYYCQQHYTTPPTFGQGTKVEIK

Chain of <Her2/neu> Ha-Lw (heavy, as listed by the source, chain 1 of 2): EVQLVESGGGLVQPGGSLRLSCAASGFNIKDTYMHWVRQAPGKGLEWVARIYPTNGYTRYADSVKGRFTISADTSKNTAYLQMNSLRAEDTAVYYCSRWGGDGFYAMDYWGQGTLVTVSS
Chain of <Her2/neu> Hb-Lw (heavy, as listed by the source, chain 1 of 2): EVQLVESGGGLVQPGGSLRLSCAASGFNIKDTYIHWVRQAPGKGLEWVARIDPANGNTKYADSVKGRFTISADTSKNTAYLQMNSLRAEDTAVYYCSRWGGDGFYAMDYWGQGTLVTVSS
Chain of <Her2/neu> Hg-Lg (light, as listed by the source, chain 2 of 2): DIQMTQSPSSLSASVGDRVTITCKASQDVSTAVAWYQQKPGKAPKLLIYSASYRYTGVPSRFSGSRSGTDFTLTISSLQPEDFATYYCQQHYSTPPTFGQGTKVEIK

Kd [1] | Kd [2] | Kd [3] | Kd [4] | Kd [5] | Kd [6] | Kd [7] | Substance
3.5 nM | 0.66 nM | 0.73 nM |  |  |  |  | huEGFR ECD (from UniProt P00533 25-645) (domain or fragment)
 |  |  | 390 nM | 390 nM | 2.1 nM | 340 nM | huHer2 ECD (from UniProt P04626 23-652) (domain or fragment)
